The record followed here is article PMC12304850, “Interfacing B‐DNA and DNA Mimic Foldamers”.

In one series the target is T1, SAP1 (UniProt P28324 1-93).
T1 sequence: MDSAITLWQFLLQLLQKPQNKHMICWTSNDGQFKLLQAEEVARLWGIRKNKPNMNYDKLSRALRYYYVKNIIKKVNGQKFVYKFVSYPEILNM
Description: BLI; BLI on streptavidin biosensors; buffer with NaCl (concentration not in material), 0.01 mM EDTA, 0.05% Tween 20; pH and temperature not in material. To be noted: protein: recombinant, label: biotin. In general terms: In BLI a coated tip is dipped into the sample, and binding shifts an interference pattern.

The target of a further series is PU.1 (UniProt P17947 165-270). The series is described as above.

B1: 27 (dsDNA)
DNA 1: GACAGCATGTG
DNA 2: CACATGCTGTC
With B1, the binding result with SAP1 (duplex) was “no binding”. Moreover, the Kd with PU.1 came out at 1600 nM.

B2: 26 (dsDNA)
DNA 1: GACAGGATGTG
DNA 2: CACATCCTGTC
On to B2, for which the Kd is 1080 ± 6 nM in the series with SAP1 (11-bp duplex, hybridized on immobilized ssDNA) and 330 nM with PU.1.

As a reminder, the Kd is a measure of binding affinity in units of concentration.
